The series can be described thus: yeast display, Sf9 membrane polyspecificity reagent, FACS + sequencing; frameworks hold sequencing errors. The procedure, abridged:
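In a synthetic yeast display library (Saccharomyces cerevisiae BJ5465), nanobody expression was induced with galactose for 36–48 hours. FACS gates were set low and high (top ~1%) using anti-HA fluorescence for expression and streptavidin fluorescence for binding of the Sf9 membrane reagent. Each polyreactivity label is drawn from the gate of origin.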
Turning to “QDQLVESGGGLVQAGGSLSLSCAASGSTFLTNAMGWYRQAPGKERELVAAISRRGGNTYYADSVKGRFTISRDNAKNTVYLQMNSMNPEDTAVYYCNAVTPTTLGDYWGQGTQVTVSS”, the “polyreactivity (PSR sort gate)” value was “high polyreactivity”.

Turning to “QDQLVESGGGLVQAGGTLRLSGAASGRTFDRNAMGWYRQAPGKAWEVVAGITRSGDSTYADSVKGRFTISRDNAKNTVYLQMNSLKPEDTAVYYCNKEGTVGGTRGYWGQGTQVTVSS”, the “polyreactivity (PSR sort gate)” value is recorded as “low polyreactivity”.

As for “QDQLVESGGGLVQAGVSLLLICAASGSTSSVYAMGWYRQAPGKERELVAAIRWSTGSTYYADSVKGLFTISRDNAKNTVYLHMNCLKPEETALYYCAAEVYTSVHIYSWYYYWGQGTKVTVSS”, the “polyreactivity (PSR sort gate)” value is on record as “high polyreactivity”.

Turning to “QDQLVESGGGLVQAGVSLRLICPASGLTFYTYAMGSYRQAPGKERELVAAIRRRGGRTYYADSVKGRFTISRDNAKNTVFLQMNSLKPEDTAVYYCAADYSTLFKYDYWGQGTQVTVSS”, the “polyreactivity (PSR sort gate)” value is listed as “low polyreactivity”.

Regarding “QDQLVESGGGLVQARGSLRLSCAASGSIFVHNAMGWYRQAPGKEREFVAAITWSGGSTYYADSVKGRFTISRDYAKNTVYLQMNSLKPEDTAVSYCAAEDVAAQWAYESPTSYWYYYWGQGTQVTVSS”, the “polyreactivity (PSR sort gate)” value was “low polyreactivity”.

For “QDQLVESGGGLVQARGSLRLSCASSGSTFDTNTMGWYRQAPGKERELVASNSRGTSTKYADSVKGRFTISRDNAKNTVYLQMNSLKPEDTAVYYCNAVSRDKSLYDYWGQGTQVTVSS”, the “polyreactivity (PSR sort gate)” value was “high polyreactivity”.

For the sequence “QDQLVESGGGLVQARVSLRLSCAASGLIFRRYAMGWYRQAPGKEREFVAAITVSGGRTYYADSVKGRFTISRDNAKNTVYLQMNSLKQEDTAVYYCDAHGYGDNRNKYFYWGLGTQVTVSS”, the “polyreactivity (PSR sort gate)” value is recorded as “high polyreactivity”.

As to “QDQLVESGGGLVQAVGSLRLSCAASGSTFWSYAMGWYRQAPGKERELVAAITDSGGSTYYADSVKGRFTISRDNAKNTVYLQMNSLKPEDTAVYYCAVDSRYTPPLRPLGPFDYWGQGTQVTVSS”, the “polyreactivity (PSR sort gate)” value was “low polyreactivity”.

For “QDQLVESGGGLVQSGGSLLLSCAPSGSMFSFYAMGCYRQAPGKEMELVAAITRGGATTNFADSVKGRFTISRDNAKNTVYLQMNSLKPEDTAVYYCAARTPNVNAVWMDYWGQGTQVTVSS”, the “polyreactivity (PSR sort gate)” value is given as “high polyreactivity”.

For “QDQLVESGGRLVQAGGSLRLSCAASGITFSRYAMGWYRQAPGKEWELVAAISCSGARTYYADSVKGRFTISRDNAKNTVYLQMNSLKPEDTAVYYCDRFLRNFKTYDYWGQGTQLTVSS”, the “polyreactivity (PSR sort gate)” value is on record as “high polyreactivity”.

Take “QDQLVESGGRLVQAGGSLRLSCAASGRTVYYYTMGWYRQAPGKEREFVAGIRYSGSSTYYADSVKGRFTISRDTAKNTVSFQMNSLKPEATAVYYCAASLWRWRFSRFGYWGQGTQVTVSS”: the “polyreactivity (PSR sort gate)” value was “high polyreactivity”.

For the sequence “QDQLVESGRGLDQAGGSLRLICAASGRIFDRYALGWYRQAPGTERELVAAISWNTGSTYYADSVKGRFTISRDNAKNTVYLQMNSLKPEDTAVYYCAAAVRPYKRQDDYWGQGTQVTVSS”, the “polyreactivity (PSR sort gate)” value is “high polyreactivity”.

“QDQLVESGVGLVQAGVSLRLSCAASGSIFESYAMGWSSQAPGKESELVAAIDYDDGSTYYADSVKGRFTISRDNAKNTVYLQMNSLKPEDTAVYYCAAKPTTYYGISDYWGQGTQVTVAS”: the “polyreactivity (PSR sort gate)” value is given as “high polyreactivity”.

Regarding “QDQLVESRGGLVQAGGSLRLSCAASGLIFPVYAMGWYRQAPRKEREFVASIWRGGTTYYADSVKGRFTISRDNAKNTVYLQMISLKPEDTAVYYCAAVVYSRGYYWGQGTQVTVSS”, the “polyreactivity (PSR sort gate)” value is reported as “high polyreactivity”.

Turning to “QDQLVESRGGLVQAGGSLRLSCAASGSTFVNNAMGWYRQAPGKERELVAAIRSSDGRTYYADSVKGRFTISRDNAKNTVYLQMNSLKPEDSAVYYCATAVGTKYRTRIFEFYYWGQGTQVTVSS”, the “polyreactivity (PSR sort gate)” value is “high polyreactivity”.

“QDQLVESRGGLVQAGRSLRISCAASGFIFYNYGMGWYRQAPGKEREFVAAITKRGGRTYYADSVKGRFTISRDYAKNTVYLQMTSLKPEDTAVYYCNKAIRQDRWVQEEDYWGQGTQVTVSS”: the “polyreactivity (PSR sort gate)” value was “high polyreactivity”.

“QDQLVESRGGLVQAGVSLRLSCAASGIIFAENAMGWYRQAPGKERELVAAITWNGGRTYYADSVKGRFTISRDNAKNTVYLQMNSLKPEDTAVYYCNAVTVYYRIYEYWGQGTQVNVSS”: the “polyreactivity (PSR sort gate)” value was “high polyreactivity”.

As to “QDQLVESRGVLVQAGGTLRLSCAASGSTFVYYVMGWYRQAPVKERELVAAISWSDDSTYYADSVKGRFTISRDNAKNTVYLQMNSLIPVDTAVYYCAATGYPFYTSGDIEYYYWGQGTQVTVSS”, the “polyreactivity (PSR sort gate)” value was “low polyreactivity”.

For the sequence “QDQLVESVGCLVQAGGSLRLSCAATGRIFQSYAMGWYRQAPGKERELVAGIRAGGGRTYYADSVKGRFTISRDIAKNTVYVQMNSLKPEDTAVDYCAARFVGSFYAPFDYWGQGTLVTVSS”, the “polyreactivity (PSR sort gate)” value is “low polyreactivity”.

“QDQLVESVGGLVQAGGSLRLSCAASGITFRYYTMGWYRQAPGKESELVAVISWSGGSTYYADSVKGRFTISRDNAKNTVYLQMNSLKPEDTAVYYCAAVRRISRYDYWGQGTQVTVSS”: the “polyreactivity (PSR sort gate)” value is listed as “high polyreactivity”.

Take “QDQLVESVGGLVQAGGSLRLSCAASGTISYAGPMGWYRKAPGKEREFVAGIGVCSNTNYADSVKGRYTIIRDNAKNTVYLQMNSLIPEDTAVYYCAVGGYAPLGRPYWGQGTQVTVSS”: the “polyreactivity (PSR sort gate)” value is on record as “low polyreactivity”.

On to “QDQLVESVGGVVQAGGSLRLSGAASGIIFVAYAMGWYRQAPGKERELVASITYSGGSTNYADSVKGRFTISRDNAKNTVYLQLNSLQPEETAVDYCARDRDPVYASVLWDDYGYWGQGTQVTVSS”, for which the “polyreactivity (PSR sort gate)” value is listed as “low polyreactivity”.

Take “QDQLVETGGGLVQAGGSLRLSCAAYGSIFDLNAMGWYRQAPGKESELVAAITYSSGRTYYADSVKGRFTISRDNAKNTVYLQMNSLKPEDTAVYYCNADLWFHYYRYNYWGQGTQVTVSS”: the “polyreactivity (PSR sort gate)” value was “high polyreactivity”.

For “QEQLEESGGGLVQAGGRLRLSCAASGSIFTTYTMGWYRQAPGKERELVAAIDYSGDSTYYADSGKGRFTISRDTAKNTVYLQMNSLKPEDTAVYYCNAVSFSAYVPYGYWGQGTQVTVSS”, the “polyreactivity (PSR sort gate)” value was “low polyreactivity”.

For “QEQLEESGGGLVQAGGRLRLSCAASGSTFGINARGWYRQAPGKEREVVASITRRGGSTYYADSVKGRFTISRDNAKNTVYLQMNSLKPEDTAVYYCNKTYRYGTPLYYYWGQGTQVTVSS”, the “polyreactivity (PSR sort gate)” value is “high polyreactivity”.

On to “QEQLHESGGGLVQAGGSLRLSCAASRTISVTYNMGWYRQATGKEREFVAGNSTGDTTNYADSVKGRFTISRDNAKNTVYLQMNSLKPEDTAVNYCSAHIYRQDHFYYWGQGTQVTVSS”, for which the “polyreactivity (PSR sort gate)” value is given as “low polyreactivity”.

Regarding “QEQLQERGGGLVQAGGSLRLSCAASGNISVTGFMGWYRQAPGKERELVASIGIGGTTYYADSVKGRFSMSRDNAKNTVYLKMNRLKPEDTAVYYCAVRWYDHVSRRGIGYYWGKGTQVTVSS”, the “polyreactivity (PSR sort gate)” value is on record as “low polyreactivity”.

On to “QEQLQESGDGLVQAGGSLRLSSAASGTIFSDYGMGGYRQAPGKERELLAGISDGCNTNYTDSVKGRFTISRDNAHRVSADEQPETGGYRGVLLRGSERWLLFYVYWGQGTQGTVSS”, for which the “polyreactivity (PSR sort gate)” value is “high polyreactivity”.

“QEQLQESGGGLVQAGCSLRLSCAANGYIFSVEDMGRYCLAPGKEREFVATINYDTSTYYADSVKGSFTISRDNAKKTVYLQMNSLKPEDTEVYYCEAYFYAYRSPGYWGQGTQVTVSS”: the “polyreactivity (PSR sort gate)” value was “high polyreactivity”.

Turning to “QEQLQESGGGLVQAGGSLRLSCAAIGSNIPTIYMGWYRHAPGKEREFVAAIGKGCSTYYADSVKGRFTISRDNALKTVYLQMNSLIPEDNAVYYCAFDPYASQDLAYWGQGTLVTVSS”, the “polyreactivity (PSR sort gate)” value is given as “low polyreactivity”.

Regarding “QEQLQESGGGLVQAGGSLRLSCAASGIIFDWFFMGWYRQAPGREREFVAAITYGATTNYADSVKGRFTISRDNGKNTVYLQMNSLKPEDSAVYYCAAQHRGVQVTFGEYDYWGQGTQVTVSS”, the “polyreactivity (PSR sort gate)” value is listed as “low polyreactivity”.

“QEQLQESGGGQVQAGGSLLLSCAASGNIIRYYYMGWYRQAPGKERELVAAITYGTSTNYADSVKGRFTISRDNATNTEFLQMNSLKPEDTAVYYCAVDVNYGDPIDNWGQGTQVTVSS”: the “polyreactivity (PSR sort gate)” value is “high polyreactivity”.

“QEQLQESGGGQVQAGGSLLLSCAASGNIIRYYYMGWYRQAPGKERELVAAITYGTSTNYADSVKGRFTISRDNEKNTVYLQMNSLKPEDSAVYYFAVVVNYGDPLVNWGQGTQVTVSS”: the “polyreactivity (PSR sort gate)” value is listed as “high polyreactivity”.

For the sequence “QEQLQESGGGQVQDGGSLRMSCAASGSISYASGLCWYSQEQGKEREFVASIDPGAITNYADSVKGRFTISHDNAKNTVYLQMNRLKPEDTAVYYCAADGHGGYGYWGQGTQVTVSS”, the “polyreactivity (PSR sort gate)” value is given as “high polyreactivity”.

With “QEQLQESGVGQVQAGGSLLLSCAASGNIIRYYYMGWYRQAPGKERELVAAITYGTSTNYADSVKGRFTISRDNAKNSVYLQINSLKPEDTAVYYCAATAYWFYAKYYYWGQGTQVTVSS”, the “polyreactivity (PSR sort gate)” value is listed as “high polyreactivity”.

For “QEQLVESGGGLVQAGGSLRLSCGASRSIVHYYAMGWYRQAPGKEREFVAAIAWGGDSTYYADSVKGRFTNSRDNANNTVYFQMYSLKPEDTAVYYCAADGPGGIGNGAGYDYWGQGTEVTVSS”, the “polyreactivity (PSR sort gate)” value was “low polyreactivity”.

As for “QFHLVESGGGLFQAGGSLRISCAASGRTLLVNAMGWYRQAPGKERELVAVITRGGSTNYADSVKGRFTISRDNAKNTVYLQMNSLKPEDTAVYYCAKQFSPYRSYGPVVRYDYWGQGTQVTVSS”, the “polyreactivity (PSR sort gate)” value is reported as “low polyreactivity”.

Consider “QFQHVESGGCLDQAGRSLRLSSAASGYIFVNAMGWYRQPPGKEMELVAAISSGGSTHYADSVKGRFTISRDNAKYTVYLQMNSLKPEDTAVYYCAAGSFYYGIVQGWYDYWGQGTQVTVSS”, for which the “polyreactivity (PSR sort gate)” value is “high polyreactivity”.

Consider “QFQIVDSVGGLVQAGGSLRLSCAASGRTFSYYSLGWYREATGKERELVASIRKSGASTYYADSVKGRFTISRDNAKNTVYLQMNSLKPEDTAVYYCNTAGWSFYSGRYDYWGQGTQVTVSS”, for which the “polyreactivity (PSR sort gate)” value is “high polyreactivity”.

As to “QFQLDESGGGLVQAGGSLRLSCAASGLTFSIYAMGWYRKARGKERELVAAITGRGGRTYYADSVKGRFTISRENAKNTVYLQMKSLKPEDTAFYYCADRYRGTDFDYWGQGTQVTVSS”, the “polyreactivity (PSR sort gate)” value was “high polyreactivity”.

Regarding “QFQLEESGGGLVQAGGSLRLSCAASGFIFTDNGMGRYRQATGKERELVAAINSDGSTYYADSVKGRFTISRDNAKNTVYLQMTSLIPEYTAVYYCAAGSFDRYFWYDYWGQGTQVTVSS”, the “polyreactivity (PSR sort gate)” value is on record as “low polyreactivity”.

For the origin of these results see the nanobody polyreactivity screen of Harvey et al. (2022).
